Measured values reported in patent publication US11630109B2, “Sensors and assays for ubiquitin or ubiquitin-like proteins” (Colorado State University Research Foundation, priority 2013, dated 2023).

How the values were obtained:
Format in all cases: binding
Nedd8 [1] = molecular target: T1, Nedd8 (Homo sapiens, UniProt Q15843); test: tSR competition assay with Atto532-tagged ubiquitin, relative fluorescence; settings: 5 nM Atto532-tagged ubiquitin protein and 600 nM tSR
Experimental: (§1) A competition assay was performed where unconjugated free ubiquitin proteins, different kinds of conjugated free ubiquitin proteins, and Nedd8 were added to mixtures of 5 nM Atto532-tagged ubiquitin protein and 600 nM tSR. The relative fluorescence was measured. […] The Ki values for unconjugated ubiquitin proteins and the different kinds of conjugated free ubiquitin proteins are provided in a table (bottom).
as §1, with “The binding affinities of tSR were determined (see FIG. 25). A competition” for “A competition”, “performed where free ubiquitin” for “performed where unconjugated free ubiquitin”, “a table (see FIG. 25).” for “a table (bottom).”

Nedd8 [2] = molecular target: T1, Nedd8; test: Direct titration of Alexa488-tagged tSR, relative fluorescence; settings: 10 nM Alexa488 tSR
Experimental: (§2) The relative fluorescence intensity changes of Alexa488-tagged tSR when ubiquitin is added is shown (middle). The relative fluorescence of 10 nM Alexa488 tSR when different concentrations of unconjugated ubiquitin protein, conjugated ubiquitin protein, or Nedd8 are added (right).
(§3) The tSR can be used for direct titration experiments (see FIG. 26). The relative fluorescence intensity changes of Alexa488-tagged tSR when ubiquitin is added at varying concentrations. The relative fluorescence of 10 nM Alexa488 tSR was measured with different concentrations of unconjugated ubiquitin protein, conjugated ubiquitin protein, or Nedd8.

[3] = test system: conjugated ubiquitin protein; test: as above; settings: 10 nM Alexa488 tSR
Experimental: as §2, §3

[4] = molecular target: unconjugated ubiquitin protein (Homo sapiens, UniProt P0CG48); test: as above; settings: 10 nM Alexa488 tSR
Experimental: as §2, §3

Nedd8 [5] = molecular target: T1, Nedd8; test: Fluorescence intensity titration of Atto532-tIV with free Nedd8
Experimental: FIG. 22 provides a graph showing that Atto532-tagged tIV L1 Cys binds to free Nedd8 with a Kd of several μM.
Increasing concentrations of free Nedd8 protein were added to Atto532-tIV, and the fluorescence intensity was measured (see FIG. 22).

T1 sequence (Q15843 1-76 limits assumed): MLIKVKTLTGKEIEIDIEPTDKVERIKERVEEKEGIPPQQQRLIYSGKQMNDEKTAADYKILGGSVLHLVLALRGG

B1: tSR: universal chimeric polypeptide sensor, SEQ ID NO: 7: S5a UIM and Ruz domains connected by a linker (protein)
chain: MPSSHHHHHHSSGLVPRGSHMTEEEQIAYAMQMSLREAGGGSDLLCKKGCGYYGNPAWQGFCSKCWREEAHKCAAERAAAE
modifications: tSR - chimeric polypeptide comprising two binding domains that bind ubiquitin in non-overlapping regions
specificity against Nedd8 (Nedd8 [1]): specificity against Nedd8

B2: Alexa488-tagged tSR: tSR tagged with Alexa488 fluorophore (conjugate)
chain: MPSSHHHHHHSSGLVPRGSHMTEEEQIAYAMQMSLREAGGGSDLLCKKGCGYYGNPAWQGFCSKCWREEAHKCAAERAAAE
binding of Nedd8 protein (Nedd8 [2]): but not Nedd8 protein
binding of conjugated ubiquitin protein [3]: detected
binding of unconjugated ubiquitin protein [4]: detected

B3: tIV: chimeric protein with two ubiquitin binding domains, IsoT ZnF and Vps27 UIM, SEQ ID NO: 5 (protein)
chain: MGSSHHHHHHSSGLVPRGSHMKQEVQAWDGEVRQVSKHAFSLKQLDNPARIPPSGWKCSKCDMRENLWLNLTDGSILCGRRYFDGSGGNNHAVEHYRETGYPLAVKLGTITPDGADVWSYDEDDMVLDPSLAEHLSHFGIDMLKMQKGSCAAAEEAELDLKAAIQESLREA
modifications: tIV - Atto532-tagged chimeric polypeptide comprising two binding domains that bind ubiquitin in non-overlapping regions
binding affinity for free Nedd8 protein compared with conjugated Nedd8 protein (Nedd8 [5]; predicted from binding interactions of Vps27UIM and Nedd8): greater binding affinity

B4: Atto532-tagged tIV L1 Cys: tIV L1 Cys (SEQ ID NO: 5) tagged with Atto532 fluorophore at the linker Cys (conjugate)
chain: MGSSHHHHHHSSGLVPRGSHMKQEVQAWDGEVRQVSKHAFSLKQLDNPARIPPSGWKCSKCDMRENLWLNLTDGSILCGRRYFDGSGGNNHAVEHYRETGYPLAVKLGTITPDGADVWSYDEDDMVLDPSLAEHLSHFGIDMLKMQKGSCAAAEEAELDLKAAIQESLREA
modifications: Atto532 fluorophore on linker Cys; tIV - Atto532-tagged chimeric polypeptide comprising two binding domains that bind ubiquitin in non-overlapping regions
KD for Nedd8 (Nedd8 [5]; free Nedd8 added to Atto532-tIV, fluorescence intensity): several
